The labels stand for the following.
B2: Asp2/BACE-myc (enzyme, not shown: small tags and cut ends)
chain: ETDEEPEEPGRRGSFVEMVDNLRGKSGQGYYVEMTVGSPPQTLNILVDTGSSNFAVGAAPHPFLHRYYQRQLSSTYRDLRKGVYVPYTQGKWEGELGTDLVSIPHGPNVTVRANIAAITESDKFFINGSNWEGILGLAYAEIARPDDSLEPFFDSLVKQTHVPNLFSLQLCGAGFPLNQSEVLASVGGSMIIGGIDHSLYTGSLWYTPIRREWYYEVIIVRVEINGQDLKMDCKEYNYDKSIVDSGTTNLRLPKKVFEAAVKSIKAASSTEKFPDGFWLGEQLVCWQAGTTPWNIFPVISLYLMGEVTNQSFRITILPQQYLRPVEDVATSQDDCYKFAISQSSTGTVMGAVIMEGFYVVFDRARKRIGFAVSACHVHDEFRTAAVEGPFVTLDMEDCGYNIPQTDESTLMTIAYVMAAICALFMLPLCLMVCQWRCLRCLRQQHDDFADDISLLK
notes: It was transiently transfected into SHSY5Y-APPswe cells; also called BACE/Asp2

For the assay “Asp2/BACE-myc”, the target named is B2. The experiment in a line: co-localisation by immunofluorescence in double-transfected SHSY5Y-APPswe cells. From the text:
(§1) cDNAs encoding Nogo isoforms were transfected into cultured SHSY5Y-APPswe cells and expressed proteins detected in fixed cells with immunohistochemistry. Asp2 was detected using a c-terminal myc epitope (FIG. 3A left panel) while the Nogo-A (FIG. 3A right panel) and B isoforms were detected using isoform specific rabbit polyclonal antibodies (designated 67 and 66 respectively or monoclonal Anti-Nogo-A 6D5 as indicated in the figure legends). These experiments confirm that it is possible to overexpress these proteins in this cellular background and can be used as the basis of an assay for modulators of Nogo influenced APP processing.

Another assay concerns the target T1, Nogo-A (Homo sapiens (Human), UniProt Q9NQC3 1-1192).
T1 sequence: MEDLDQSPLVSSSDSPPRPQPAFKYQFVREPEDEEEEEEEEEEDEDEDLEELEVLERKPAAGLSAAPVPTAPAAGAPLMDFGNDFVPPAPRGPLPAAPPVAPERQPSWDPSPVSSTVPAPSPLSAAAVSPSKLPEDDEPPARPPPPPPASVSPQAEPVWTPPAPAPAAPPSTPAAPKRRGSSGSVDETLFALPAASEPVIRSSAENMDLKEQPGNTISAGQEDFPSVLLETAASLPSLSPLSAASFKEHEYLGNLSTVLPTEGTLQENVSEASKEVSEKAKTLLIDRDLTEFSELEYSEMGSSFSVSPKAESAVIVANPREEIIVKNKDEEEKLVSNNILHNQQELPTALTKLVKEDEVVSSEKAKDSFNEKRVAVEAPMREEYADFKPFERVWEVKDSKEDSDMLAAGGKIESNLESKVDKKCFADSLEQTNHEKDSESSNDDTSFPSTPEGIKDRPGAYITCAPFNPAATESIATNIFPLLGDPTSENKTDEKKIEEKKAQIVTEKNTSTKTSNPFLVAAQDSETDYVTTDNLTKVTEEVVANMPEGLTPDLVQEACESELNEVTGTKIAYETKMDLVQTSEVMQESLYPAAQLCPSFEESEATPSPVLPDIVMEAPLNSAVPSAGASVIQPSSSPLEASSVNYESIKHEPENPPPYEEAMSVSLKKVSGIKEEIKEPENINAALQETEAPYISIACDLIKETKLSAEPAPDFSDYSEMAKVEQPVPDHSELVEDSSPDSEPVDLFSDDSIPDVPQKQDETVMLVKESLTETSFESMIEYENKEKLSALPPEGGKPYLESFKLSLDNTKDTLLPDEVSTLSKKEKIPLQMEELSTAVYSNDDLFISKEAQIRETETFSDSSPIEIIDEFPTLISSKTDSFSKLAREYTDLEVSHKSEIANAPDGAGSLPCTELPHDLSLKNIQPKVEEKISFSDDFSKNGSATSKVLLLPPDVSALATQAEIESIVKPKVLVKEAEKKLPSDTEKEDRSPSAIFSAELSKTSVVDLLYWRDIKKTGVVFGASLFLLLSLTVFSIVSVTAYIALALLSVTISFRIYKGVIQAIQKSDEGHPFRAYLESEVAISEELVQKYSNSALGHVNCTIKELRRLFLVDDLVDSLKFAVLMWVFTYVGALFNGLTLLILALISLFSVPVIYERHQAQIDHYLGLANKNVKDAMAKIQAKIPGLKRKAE
The description is as above.
Excerpt: as §1

B1: NogoB (ASY) (other)
chain: MEDLDQSPLVSSSDSPPRPQPAFKYQFVREPEDEEEEEEEEEEDEDEDLEELEVLERKPAAGLSAAPVPTAPAAGAPLMDFGNDFVPPAPRGPLPAAPPVAPERQPCWDPSPVSSTVPAPSPLSAAAVSPSKLPQDDEPPARPPPPPPASVSPQAEPVWTPPAPAPAAPPSTPAAPKRRGSSGSVVVDLLYWRDIKKTGVVFGASLFLLLSLTVFSIVSVTAYIALALLSVTISFRIYKGVIQAIQKSDEGHPFRAYLESEVAISEELVQKYSNSALGHVNCTIKELRRLFLVDDLVDSLKFAVLMWVFTYVGALFNGLTLLILALISLFSVPVIYERHQAQIDHYLGLANKNVKDAMAKIQAKIPGLKRKAE
As to B1, the binding result in the assay with Asp2/BACE-myc was “binds”. Regarding B2, the binding result with Nogo-A is recorded as “binds”.

Values taken from US20040132096A1 (GlaxoSmithKline, published 2004).
